From US20170355744A1 (published 2017)

Molecular target: T1, Untagged Naglu (human, UniProt P54802 24-743)
T1 construct: also called untagged Naglu protein; alpha-N-acetylglucosaminidase
T1 sequence: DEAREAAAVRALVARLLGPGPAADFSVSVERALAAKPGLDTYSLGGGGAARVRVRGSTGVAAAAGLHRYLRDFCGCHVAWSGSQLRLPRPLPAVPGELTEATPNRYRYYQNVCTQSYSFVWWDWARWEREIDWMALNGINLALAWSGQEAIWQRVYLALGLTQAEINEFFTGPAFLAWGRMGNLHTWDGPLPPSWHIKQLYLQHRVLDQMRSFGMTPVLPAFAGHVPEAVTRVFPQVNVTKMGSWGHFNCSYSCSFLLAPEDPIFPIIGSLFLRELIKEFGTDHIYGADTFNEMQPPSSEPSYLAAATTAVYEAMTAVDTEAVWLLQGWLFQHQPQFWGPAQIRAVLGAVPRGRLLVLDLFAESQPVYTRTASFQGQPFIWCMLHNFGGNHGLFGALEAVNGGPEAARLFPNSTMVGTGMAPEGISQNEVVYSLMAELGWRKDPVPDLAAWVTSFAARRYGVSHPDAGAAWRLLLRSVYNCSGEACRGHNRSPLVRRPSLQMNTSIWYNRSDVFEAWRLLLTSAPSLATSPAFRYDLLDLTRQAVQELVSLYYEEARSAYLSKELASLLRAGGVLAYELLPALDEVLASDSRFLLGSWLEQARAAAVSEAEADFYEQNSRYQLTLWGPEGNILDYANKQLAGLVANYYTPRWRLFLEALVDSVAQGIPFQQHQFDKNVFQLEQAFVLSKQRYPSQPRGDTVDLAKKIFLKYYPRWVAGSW
Assay: IGF2R competitive binding assay (displacement of biotinylated IGF-II from plate-coated IGFIIR domains 10-13)
Experimental: To measure the ability of the Naglu fusion protein constructs to bind to the IGF-II receptor a competitive binding assay is carried out. A fragment of the IGFIIR involved with IGF-II binding (domains 10-13, named protein 1288) is coated onto 96-well plates. Biotinylated IGF-II is incubated with the receptor in the presence of increasing amounts of competitors: either control IGF-II (non-biotinylated), or fusion protein sample (containing an IGF-II-derived GILT epitope tag). Receptor-bound biotinylated IGF-II is detected with streptavidin conjugated to horseradish peroxidase (HRP) and a chemiluminescent HRP substrate. The ability of the fusion protein to inhibit binding of biotinylated IGF-II to the IGFIIR is calculated from inhibition curves and reported as an IC₅₀ value (concentration required to achieve 50% binding inhibition).
For the assay, IGFIIR is coated in a white Reacti-bind plate (Pierce, Cat#437111) at 0.5 μg/well in a volume of 100 μl (69.6 nM/per well) in coating buffer. The plate is sealed and incubated overnight at room temperature. The plate is then washed 3× with wash buffer, blocked with blocking buffer and then washed again 3× with wash buffer (300 μl/well).

binding result: no binding
B1: fragment of the IGFIIR involved with IGF-II binding (domains 10-13, named protein 1288) (receptor, UniProt P11717 1367-1989, looked up)
chain: TECSFKDGAGNSFDLSSLSRYSDNWEAITGTGDPEHYLINVCKSLAPQAGTEPCPPEAAACLLGGSKPVNLGRVRDGPQWRDGIIVLKYVDGDLCPDGIRKKSTTIRFTCSESQVNSRPMFISAVEDCEYTFAWPTATACPMKSNEHDDCQVTNPSTGHLFDLSSLSGRAGFTAAYSEKGLVYMSICGENENCPPGVGACFGQTRISVGKANKRLRYVDQVLQLVYKDGSPCPSKSGLSYKSVISFVCRPEARPTNRPMLISLDKQTCTLFFSWHTPLACEQATECSVRNGSSIVDLSPLIHRTGGYEAYDESEDDASDTNPDFYINICQPLNPMHGVPCPAGAAVCKVPIDGPPIDIGRVAGPPILNPIANEIYLNFESSTPCLADKHFNYTSLIAFHCKRGVSMGTPKLLRTSECDFVFEWETPVVCPDEVRMDGCTLTDEQLLYSFNLSSLSTSTFKVTRDSRTYSVGVCTFAVGPEQGGCKDGGVCLLSGTKGASFGRLQSMKLDYRHQDEAVVLSYVNGDRCPPETDDGVPCVFPFIFNGKSYEECIIESRAKLWCSTTADYDRDHEWGFCRHSNSYRTSSIIFKCDEDEDIGRPQVFSEVRGCDVTFEWKTKVVCPP
notes: domain: domains 10-13; Coated on the plate at 0.5 ug/well; also called IGF2R
